pKd: −log10 of the molar value.
Legend:
[1] = molecular target: Fc fused human IL-18BP isoform a (IL-18BPa) (human) (UniProt O95998); assay: SPR, Fc-IL-18BPa captured via anti-human IgG, IL-18 as analyte, 1:1 model
[2] = molecular target: His-tagged human IL-18BP (human) (UniProt O95998); assay: alphaLISA of free IL-18BP after 1 h with titrated IL-18
[3] = molecular target: modified IL-18 polypeptide SEQ ID NO: 214 (V11I, D37A, C38A, K53A, C76A, C127A) (human) (UniProt Q14116); assay: cell-based or functional assay
modified IL-18 polypeptide SEQ ID NO: 214 (V11I, D37A, C38A, K53A, C76A, C127A) (human), sequence (Q14116 37-193 V47I/D73A/C74A/K89A/C112A/C163A): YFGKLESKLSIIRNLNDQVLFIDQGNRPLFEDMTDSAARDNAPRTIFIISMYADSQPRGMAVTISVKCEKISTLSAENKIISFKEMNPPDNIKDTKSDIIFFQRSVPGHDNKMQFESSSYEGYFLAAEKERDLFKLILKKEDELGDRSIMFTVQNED

[4] = molecular target: modified IL-18 polypeptide SEQ ID NO: 213 (V11I, S36A, C38A, K53A, C76A, C127A) (human) (UniProt Q14116); assay: cell-based or functional assay
[5] = molecular target: modified IL-18 polypeptide SEQ ID NO: 224 (V11I, C38A, C76A, Q103K, C127A) (human) (UniProt Q14116); assay: cell-based or functional assay
modified IL-18 polypeptide SEQ ID NO: 224 (V11I, C38A, C76A, Q103K, C127A) (human), sequence (Q14116 37-193 V47I/C74A/C112A/Q139K/C163A): as the sequence (Q14116 37-193 V47I/D73A/C74A/K89A/C112A/C163A) above, with A37D, A53K, Q103K counted along it

[6] = molecular target: modified IL-18 polypeptide SEQ ID NO: 208 (V11I, C38A, K53A, D54A, C76A, C127A) (human) (UniProt Q14116); assay: cell-based or functional assay
[7] = molecular target: modified IL-18 polypeptide SEQ ID NO: 4 (E6K, C38A, K53A, C68A, M86C) (human) (UniProt Q14116); assay: cell-based or functional assay
modified IL-18 polypeptide SEQ ID NO: 4 (E6K, C38A, K53A, C68A, M86C) (human), sequence (Q14116 other isoform, or with tags, fused parts or gaps C38A K53A C68A M86C C38A K53A C68A M86C): as the sequence (Q14116 37-193 V47I/D73A/C74A/K89A/C112A/C163A) above, with E6K, I11V, A37D, C68A, A76C, M86C, A127C counted along it

[8] = molecular target: modified IL-18 polypeptide SEQ ID NO: 62 (E6K, C38A, K53A, C127A) (human) (UniProt Q14116); assay: cell-based or functional assay
[9] = molecular target: modified IL-18 polypeptide SEQ ID NO: 229 (V11I, C38A, C76A, S105K, C127A) (human) (UniProt Q14116); assay: cell-based or functional assay
modified IL-18 polypeptide SEQ ID NO: 229 (V11I, C38A, C76A, S105K, C127A) (human), sequence (Q14116 37-193 V47I/C74A/C112A/S141K/C163A): as the sequence (Q14116 37-193 V47I/D73A/C74A/K89A/C112A/C163A) above, with A37D, A53K, S105K counted along it

[10] = molecular target: modified IL-18 polypeptide SEQ ID NO: 209 (F2A, V11I, C38A, K53A, C76A, C127A) (human) (UniProt Q14116); assay: cell-based or functional assay
[11] = molecular target: PEGylated modified IL-18 polypeptide SEQ ID NO: 9 + PEG (E6K, C38A, K53A, C68A, D98C-30kPEG) (human) (UniProt Q14116); assay: cell-based or functional assay
PEGylated modified IL-18 polypeptide SEQ ID NO: 9 + PEG (E6K, C38A, K53A, C68A, D98C-30kPEG) (human), sequence (Q14116 other isoform, or with tags, fused parts or gaps C38A K53A C68A D98C C38A K53A C68A D98C): as the sequence (Q14116 37-193 V47I/D73A/C74A/K89A/C112A/C163A) above, with E6K, I11V, A37D, C68A, A76C, D98C, A127C counted along it

[12] = molecular target: wild type IL-18 (SEQ ID NO: 1, native sequence) (human) (UniProt Q14116); assay: cell-based or functional assay
[13] = molecular target: modified IL-18 polypeptide SEQ ID NO: 217 (V11I, C38A, N41A, K53A, C76A, C127A) (human) (UniProt Q14116); assay: cell-based or functional assay
modified IL-18 polypeptide SEQ ID NO: 217 (V11I, C38A, N41A, K53A, C76A, C127A) (human), sequence (Q14116 37-193 V47I/C74A/N77A/K89A/C112A/C163A): as the sequence (Q14116 37-193 V47I/D73A/C74A/K89A/C112A/C163A) above, with A37D, N41A counted along it

[14] = molecular target: modified IL-18 polypeptide SEQ ID NO: 30 (E6K, V11I, C38A, K53A, T63A, C76A, C127A) (human) (UniProt Q14116); assay: cell-based or functional assay
[15] = molecular target: modified IL-18 polypeptide SEQ ID NO: 28 (E6K, C38A, K53A, T63A, C76A, C127A) (human) (UniProt Q14116); assay: cell-based or functional assay
modified IL-18 polypeptide SEQ ID NO: 28 (E6K, C38A, K53A, T63A, C76A, C127A) (human), sequence (Q14116 other isoform, or with tags, fused parts or gaps C38A K53A T63A C76A C127A C38A K53A T63A C76A C127A): as the sequence (Q14116 37-193 V47I/D73A/C74A/K89A/C112A/C163A) above, with E6K, I11V, A37D, T63A counted along it

[16] = molecular target: modified IL-18 polypeptide SEQ ID NO: 63 (E6K, C38A, K53A, C76A, C127A) (human) (UniProt Q14116); assay: cell-based or functional assay
modified IL-18 polypeptide SEQ ID NO: 63 (E6K, C38A, K53A, C76A, C127A) (human), sequence (Q14116 other isoform, or with tags, fused parts or gaps C38A K53A C76A C127A C38A K53A C76A C127A): as the sequence (Q14116 37-193 V47I/D73A/C74A/K89A/C112A/C163A) above, with E6K, I11V, A37D counted along it

[17] = molecular target: modified IL-18 polypeptide SEQ ID NO: 61 (E6K, C38A, K53A, C76A) (human) (UniProt Q14116); assay: cell-based or functional assay
[18] = molecular target: PEGylated modified IL-18 polypeptide SEQ ID NO: 6 + PEG (E6K, V11I, C38A, K53A, T63A, C68A, C76A, C127A, D98C-30kPEG) (human) (UniProt Q14116); assay: cell-based or functional assay
[19] = molecular target: modified IL-18 polypeptide SEQ ID NO: 5 (E6K, V11I, C38A, K53A, T63A, C68A, C76A, M86C, C127A) (human) (UniProt Q14116); assay: cell-based or functional assay
[20] = molecular target: modified IL-18 polypeptide SEQ ID NO: 216 (V11I, C38A, D40A, K53A, C76A, C127A) (human) (UniProt Q14116); assay: cell-based or functional assay
modified IL-18 polypeptide SEQ ID NO: 216 (V11I, C38A, D40A, K53A, C76A, C127A) (human), sequence (Q14116 37-193 V47I/C74A/D76A/K89A/C112A/C163A): as the sequence (Q14116 37-193 V47I/D73A/C74A/K89A/C112A/C163A) above, with A37D, D40A counted along it

[21] = molecular target: modified IL-18 polypeptide SEQ ID NO: 222 (K8R, V11I, C38A, C76A, Q103E, C127A) (human) (UniProt Q14116); assay: cell-based or functional assay
modified IL-18 polypeptide SEQ ID NO: 222 (K8R, V11I, C38A, C76A, Q103E, C127A) (human), sequence (Q14116 other isoform, or with tags, fused parts or gaps V11I C38A C76A Q103E C127A V11I C38A C76A Q103E C127A): as the sequence (Q14116 37-193 V47I/D73A/C74A/K89A/C112A/C163A) above, with K8R, A37D, A53K, Q103E counted along it

[22] = molecular target: modified IL-18 polypeptide SEQ ID NO: 226 (V11I, C38A, S55R, C76A, C127A) (human) (UniProt Q14116); assay: cell-based or functional assay
modified IL-18 polypeptide SEQ ID NO: 226 (V11I, C38A, S55R, C76A, C127A) (human), sequence (Q14116 37-193 V47I/C74A/S91R/C112A/C163A): as the sequence (Q14116 37-193 V47I/D73A/C74A/K89A/C112A/C163A) above, with A37D, A53K, S55R counted along it

[23] = molecular target: modified IL-18 polypeptide SEQ ID NO: 227 (V11I, C38A, S55T, C76A, C127A) (human) (UniProt Q14116); assay: cell-based or functional assay
[24] = molecular target: modified IL-18 polypeptide SEQ ID NO: 228 (V11I, C38A, C76A, S105I, C127A) (human) (UniProt Q14116); assay: cell-based or functional assay
modified IL-18 polypeptide SEQ ID NO: 228 (V11I, C38A, C76A, S105I, C127A) (human), sequence (Q14116 37-193 V47I/C74A/C112A/S141I/C163A): as the sequence (Q14116 37-193 V47I/D73A/C74A/K89A/C112A/C163A) above, with A37D, A53K, S105I counted along it

[25] = molecular target: modified IL-18 polypeptide SEQ ID NO: 9 (E6K, C38A, K53A, C68A, D98C) (human) (UniProt Q14116); assay: cell-based or functional assay
modified IL-18 polypeptide SEQ ID NO: 9 (E6K, C38A, K53A, C68A, D98C) (human), sequence (Q14116 other isoform, or with tags, fused parts or gaps C38A K53A C68A D98C C38A K53A C68A D98C): as the sequence (Q14116 37-193 V47I/D73A/C74A/K89A/C112A/C163A) above, with E6K, I11V, A37D, C68A, A76C, D98C, A127C counted along it

[26] = molecular target: modified IL-18 polypeptide SEQ ID NO: 6 (E6K, V11I, C38A, K53A, T63A, C68A, C76A, D98C, C127A) (human) (UniProt Q14116); assay: cell-based or functional assay
[27] = molecular target: modified IL-18 polypeptide SEQ ID NO: 11 (E6K, V11I, C38A, K53A, C76A, C127A) (human) (UniProt Q14116); assay: cell-based or functional assay
modified IL-18 polypeptide SEQ ID NO: 11 (E6K, V11I, C38A, K53A, C76A, C127A) (human), sequence (Q14116 other isoform, or with tags, fused parts or gaps V11I C38A K53A C76A C127A V11I C38A K53A C76A C127A): as the sequence (Q14116 37-193 V47I/D73A/C74A/K89A/C112A/C163A) above, with E6K, A37D counted along it

[28] = molecular target: modified IL-18 polypeptide SEQ ID NO: 212 (V11I, D35A, C38A, K53A, C76A, C127A) (human) (UniProt Q14116); assay: cell-based or functional assay
modified IL-18 polypeptide SEQ ID NO: 212 (V11I, D35A, C38A, K53A, C76A, C127A) (human), sequence (Q14116 37-193 V47I/D71A/C74A/K89A/C112A/C163A): as the sequence (Q14116 37-193 V47I/D73A/C74A/K89A/C112A/C163A) above, with D35A, A37D counted along it

[29] = molecular target: modified IL-18 polypeptide SEQ ID NO: 57 (E6K, C38S, K53A) (human) (UniProt Q14116); assay: cell-based or functional assay
[30] = molecular target: modified IL-18 polypeptide SEQ ID NO: 215 (V11I, E31A, D37A, C38A, K53A, C76A, C127A) (human) (UniProt Q14116); assay: cell-based or functional assay
modified IL-18 polypeptide SEQ ID NO: 215 (V11I, E31A, D37A, C38A, K53A, C76A, C127A) (human), sequence (Q14116 37-193 V47I/E67A/D73A/C74A/K89A/C112A/C163A): as the sequence (Q14116 37-193 V47I/D73A/C74A/K89A/C112A/C163A) above, with E31A counted along it

[31] = molecular target: modified IL-18 polypeptide SEQ ID NO: 218 (V11I, C38A, K53A, C76A, C127A, D132A) (human) (UniProt Q14116); assay: cell-based or functional assay
modified IL-18 polypeptide SEQ ID NO: 218 (V11I, C38A, K53A, C76A, C127A, D132A) (human), sequence (Q14116 37-193 V47I/C74A/K89A/C112A/C163A/D168A): as the sequence (Q14116 37-193 V47I/D73A/C74A/K89A/C112A/C163A) above, with A37D, D132A counted along it

[32] = molecular target: modified IL-18 polypeptide SEQ ID NO: 205 (V11I, C38A, K53A, T63A, C76A, C127A) (human) (UniProt Q14116); assay: cell-based or functional assay
modified IL-18 polypeptide SEQ ID NO: 205 (V11I, C38A, K53A, T63A, C76A, C127A) (human), sequence (Q14116 37-193 V47I/C74A/K89A/T99A/C112A/C163A): as the sequence (Q14116 37-193 V47I/D73A/C74A/K89A/C112A/C163A) above, with A37D, T63A counted along it

[33] = molecular target: modified IL-18 polypeptide SEQ ID NO: 225 (V11I, C38A, S55H, C76A, C127A) (human) (UniProt Q14116); assay: cell-based or functional assay
modified IL-18 polypeptide SEQ ID NO: 225 (V11I, C38A, S55H, C76A, C127A) (human), sequence (Q14116 37-193 V47I/C74A/S91H/C112A/C163A): as the sequence (Q14116 37-193 V47I/D73A/C74A/K89A/C112A/C163A) above, with A37D, A53K, S55H counted along it

[34] = molecular target: PEGylated modified IL-18 polypeptide SEQ ID NO: 4 + PEG (E6K, C38A, K53A, C68A, M86C-30kPEG) (human) (UniProt Q14116); assay: cell-based or functional assay
PEGylated modified IL-18 polypeptide SEQ ID NO: 4 + PEG (E6K, C38A, K53A, C68A, M86C-30kPEG) (human), sequence (Q14116 other isoform, or with tags, fused parts or gaps C38A K53A C68A M86C C38A K53A C68A M86C): as the sequence (Q14116 37-193 V47I/D73A/C74A/K89A/C112A/C163A) above, with E6K, I11V, A37D, C68A, A76C, M86C, A127C counted along it

[35] = molecular target: modified IL-18 polypeptide SEQ ID NO: 207 (V11I, C38A, M51G, K53A, C76A, C127A) (human) (UniProt Q14116); assay: cell-based or functional assay
[36] = molecular target: modified IL-18 polypeptide SEQ ID NO: 223 (K8E, V11I, C38A, C76A, Q103R, C127A) (human) (UniProt Q14116); assay: cell-based or functional assay
modified IL-18 polypeptide SEQ ID NO: 223 (K8E, V11I, C38A, C76A, Q103R, C127A) (human), sequence (Q14116 other isoform, or with tags, fused parts or gaps V11I C38A C76A Q103R C127A V11I C38A C76A Q103R C127A): as the sequence (Q14116 37-193 V47I/D73A/C74A/K89A/C112A/C163A) above, with K8E, A37D, A53K, Q103R counted along it

[37] = molecular target: modified IL-18 polypeptide SEQ ID NO: 211 (V11I, T34A, C38A, K53A, C76A, C127A) (human) (UniProt Q14116); assay: cell-based or functional assay
[38] = molecular target: modified IL-18 polypeptide SEQ ID NO: 206 (V11I, C38A, K53A, S55A, C76A, C127A) (human) (UniProt Q14116); assay: cell-based or functional assay
[39] = molecular target: modified IL-18 polypeptide SEQ ID NO: 8 (E6K, V11I, C38A, K53A, T63A, C68A, C76A, T95C, C127A) (human) (UniProt Q14116); assay: cell-based or functional assay
modified IL-18 polypeptide SEQ ID NO: 8 (E6K, V11I, C38A, K53A, T63A, C68A, C76A, T95C, C127A) (human), sequence (Q14116 other isoform, or with tags, fused parts or gaps with the stated changes): as the sequence (Q14116 37-193 V47I/D73A/C74A/K89A/C112A/C163A) above, with E6K, A37D, T63A, C68A, T95C counted along it

[40] = molecular target: PEGylated modified IL-18 polypeptide SEQ ID NO: 5 + PEG (E6K, V11I, C38A, K53A, T63A, C68A, C76A, C127A, M86C-30kPEG) (human) (UniProt Q14116); assay: cell-based or functional assay
[41] = molecular target: modified IL-18 polypeptide SEQ ID NO: 220 (V11I, C38A, K53A, C76A, H109A, C127A) (human) (UniProt Q14116); assay: cell-based or functional assay
[42] = molecular target: modified IL-18 polypeptide SEQ ID NO: 219 (V11I, C38A, K53A, C76A, G108A, C127A) (human) (UniProt Q14116); assay: cell-based or functional assay
[43] = molecular target: modified IL-18 polypeptide SEQ ID NO: 210 (V11I, E31A, C38A, K53A, C76A, C127A) (human) (UniProt Q14116); assay: cell-based or functional assay
modified IL-18 polypeptide SEQ ID NO: 210 (V11I, E31A, C38A, K53A, C76A, C127A) (human), sequence (Q14116 37-193 V47I/E67A/C74A/K89A/C112A/C163A): as the sequence (Q14116 37-193 V47I/D73A/C74A/K89A/C112A/C163A) above, with E31A, A37D counted along it

[44] = molecular target: modified IL-18 polypeptide SEQ ID NO: 221 (V11I, C38A, K53A, C76A, D110A, C127A) (human) (UniProt Q14116); assay: cell-based or functional assay
modified IL-18 polypeptide SEQ ID NO: 221 (V11I, C38A, K53A, C76A, D110A, C127A) (human), sequence (Q14116 37-193 V47I/C74A/K89A/C112A/D146A/C163A): as the sequence (Q14116 37-193 V47I/D73A/C74A/K89A/C112A/C163A) above, with A37D, D110A counted along it

[45] = molecular target: modified IL-18 polypeptide SEQ ID NO: 59 (E6K, C38A, K53A) (human) (UniProt Q14116); assay: cell-based or functional assay
modified IL-18 polypeptide SEQ ID NO: 59 (E6K, C38A, K53A) (human), sequence (Q14116 other isoform, or with tags, fused parts or gaps C38A K53A C38A K53A): as the sequence (Q14116 37-193 V47I/D73A/C74A/K89A/C112A/C163A) above, with E6K, I11V, A37D, A76C, A127C counted along it

[46] = molecular target: modified IL-18 polypeptide SEQ ID NO: 204 (V11I, C38A, K53A, C76A, C127A) (human) (UniProt Q14116); assay: cell-based or functional assay
modified IL-18 polypeptide SEQ ID NO: 204 (V11I, C38A, K53A, C76A, C127A) (human), sequence (Q14116 37-193 V47I/C74A/K89A/C112A/C163A): as the sequence (Q14116 37-193 V47I/D73A/C74A/K89A/C112A/C163A) above, with A37D counted along it

[47] = molecular target: modified IL-18 polypeptide SEQ ID NO: 60 (E6K, C38Q, K53A) (human) (UniProt Q14116); assay: cell-based or functional assay

wild type IL-18 (SEQ ID NO: 1, native sequence), sequence (Q14116 37-193): as the sequence (Q14116 37-193 V47I/D73A/C74A/K89A/C112A/C163A) above, with I11V, A37D, A38C, A53K, A76C, A127C counted along it
Fc fused human IL-18BP isoform a (IL-18BPa) (human), sequence (O95998 31-194): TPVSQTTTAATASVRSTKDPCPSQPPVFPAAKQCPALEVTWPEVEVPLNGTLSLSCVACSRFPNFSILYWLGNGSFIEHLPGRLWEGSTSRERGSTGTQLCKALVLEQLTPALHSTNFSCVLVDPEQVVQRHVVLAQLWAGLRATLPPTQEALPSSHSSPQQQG

wild type IL-18 (SEQ ID NO: 1, native sequence) (from UniProt Q14116 37-193) (ligand)
pKd [1]: 9.57 | koff [1]: 0.000383 s⁻¹ | kon [1]: 1.49e+06 M⁻¹ s⁻¹ | pKd [2]: 9.38

Fc fused human IL-18BP isoform a (IL-18BPa) (from UniProt O95998 31-194) (Fc fusion)
IC50, IFNγ secretion by NK-92 cells [3]: 2.22 nM | IC50, IFNγ secretion by NK-92 cells [4]: 7.85 nM | IC50, IFNγ secretion by NK-92 cells [5]: 0.823 nM | IC50, IFNγ secretion by NK-92 cells [6]: 47.6 nM | IC50, IFNγ secretion by NK-92 cells [7]: 396 nM | IC50, IFNγ secretion by NK-92 cells [8]: 284 nM | IC50, IFNγ secretion by NK-92 cells [9]: 0.176 nM | IC50, IFNγ secretion by NK-92 cells [10]: 5.05 nM | IC50, IFNγ secretion by NK-92 cells [11]: 27.2 nM | IC50, IFNγ secretion by NK-92 cells [12]: 0.787 nM | IC50, IFNγ secretion by NK-92 cells [13]: 0.681 nM | IC50, IFNγ secretion by NK-92 cells [14]: 488 nM | IC50, IFNγ secretion by NK-92 cells [15]: 233 nM | IC50, IFNγ secretion by NK-92 cells [16]: 286 nM | IC50, IFNγ secretion by NK-92 cells [17]: 779 nM | IC50, IFNγ secretion by NK-92 cells [18]: 14.3 nM | IC50, IFNγ secretion by NK-92 cells [19]: 62.4 nM | IC50, IFNγ secretion by NK-92 cells [20]: 3.23 nM | IC50, IFNγ secretion by NK-92 cells [21]: 1.07 nM | IC50, IFNγ secretion by NK-92 cells [22]: 0.885 nM | IC50, IFNγ secretion by NK-92 cells [23]: 0.44 nM | IC50, IFNγ secretion by NK-92 cells [24]: 0.809 nM | IC50, IFNγ secretion by NK-92 cells [25]: 961 nM | IC50, IFNγ secretion by NK-92 cells [26]: 5.85 nM | IC50, IFNγ secretion by NK-92 cells [27]: 532 nM | IC50, IFNγ secretion by NK-92 cells [28]: 3.62 nM | IC50, IFNγ secretion by NK-92 cells [29]: 146 nM | IC50, IFNγ secretion by NK-92 cells [30]: 3.71 nM | IC50, IFNγ secretion by NK-92 cells [31]: 6.08 nM | IC50, IFNγ secretion by NK-92 cells [32]: 7.52 nM | IC50, IFNγ secretion by NK-92 cells [33]: 0.456 nM | IC50, IFNγ secretion by NK-92 cells [34]: 34 nM | IC50, IFNγ secretion by NK-92 cells [35]: 733 nM | IC50, IFNγ secretion by NK-92 cells [36]: 7.29 nM | IC50, IFNγ secretion by NK-92 cells [37]: 21.3 nM | IC50, IFNγ secretion by NK-92 cells [38]: 10.2 nM | IC50, IFNγ secretion by NK-92 cells [39]: 522 nM | IC50, IFNγ secretion by NK-92 cells [40]: 12 nM | IC50, IFNγ secretion by NK-92 cells [41]: 1.81 nM | IC50, IFNγ secretion by NK-92 cells [42]: 3.98 nM | IC50, IFNγ secretion by NK-92 cells [43]: 1.17 nM | IC50, IFNγ secretion by NK-92 cells [44]: 3.18 nM | IC50, IFNγ secretion by NK-92 cells [45]: 654 nM | IC50, IFNγ secretion by NK-92 cells [46]: 1.62 nM | IC50, IFNγ secretion by NK-92 cells [47]: 780 nM

modified IL-18 polypeptide SEQ ID NO: 57 (E6K, C38S, K53A) (from UniProt Q14116 37-193) (ligand)
pKd [1]: 8.57 | koff [1]: 0.0031 s⁻¹ | kon [1]: 1.14e+06 M⁻¹ s⁻¹

modified IL-18 polypeptide SEQ ID NO: 59 (E6K, C38A, K53A) (from UniProt Q14116 37-193) (ligand)
pKd [2]: 7.44

Reference: US20230357342A1
